According to patent US20230406901A1:

Biological target: growth hormone receptor (GHR) on BAF3/GHR cells
Assay: cell-based or functional assay

- EC50(nM), proliferation of BAF3/GHR cells (Alamar-Blue): 3.19 nM
- Relative potency, proliferation of BAF3/GHR cells (Alamar-Blue): 37.7%
Substance: growth hormone fusion protein containing a flexible linker, GH(GGGGS)4 (from UniProt P01861 100-325) (Fc fusion)
